# Measurements reported in article PMC5655542, “HpARI Protein Secreted by a Helminth Parasite Suppresses Interleukin-33” (Immunity, 2017).
# Biological target: T1, H. polygyrus Alarmin Release Inhibitor (HpARI), recombinant mature 6-His and Myc-tagged protein (Heligmosomoides polygyrus)
# T1 construct: HpARI, Heligmosomoides polygyrus; 251-aa protein including a 16-aa signal peptide; the mature protein (26 kDa, three CCP-like modules) was expressed; the CCP1/2 construct starts at amino acid 17; Codon-optimised synthetic gene cloned with AscI and NotI into pSecTAG2A; also called candidate D; not shown: myc, C-terminal, kept; His6, C-terminal, kept
# Experiment: SPR; BIAcore T200; HpARI captured via its 6-His tag on a Ni2+-NTA chip to 400 RU; cytokine injected (mIL-33 6.2-167 nM, hIL-33 0.062-1.67 μM); 25°C; 10 mM NaH2PO4 pH 7.5, 150 mM NaCl, 50 μM EDTA, 0.05% surfactant P20; single kinetic titration, global 1:1 fit
# Details: both partners purified
# T1 sequence (A0A3P7XL18 63-297): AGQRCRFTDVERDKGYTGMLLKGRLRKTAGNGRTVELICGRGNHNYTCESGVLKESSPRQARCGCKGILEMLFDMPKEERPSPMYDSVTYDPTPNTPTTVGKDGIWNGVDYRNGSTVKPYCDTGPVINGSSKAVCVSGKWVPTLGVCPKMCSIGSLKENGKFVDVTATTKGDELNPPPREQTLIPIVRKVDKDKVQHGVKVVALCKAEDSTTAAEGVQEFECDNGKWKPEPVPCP
binder,measurement,value
"recombinant murine IL-33, untreated (reduced, active form) (ligand, reduced (free cysteines, no disulfides), active form; limits not given, taken as the usual commercial mature mouse IL-33 (Ser109-Ile266, UniProt chain 109-266)) SIQGTSLLTQSPASLSTYNDQSVSFVLENGCYVINVDDSGKDQEQDQVLLRYYESPCPASQSGDGVDGKKLMVNMSPIKDTDIWLHANDKDYSVELQRGDVSPPEQAFFVLHKKSSDFVSFECKNLPGTYIGVKDNQLALVEEKDESCNNIMFKLSKI",Kd,0.56 ± 0.1 nM
same,stoichiometry N,1
